From patent US6117976, “Manufacture and use of polypeptides tagged using binding molecules” (Medical Research Council, dated 2000)
No end group written: not given here.

Molecular target: calmodulin (Homo sapiens (Human))
Assay: not stated (off-rate from calmodulin)

Binder | koff [s⁻¹]
CEIKRAAAINLKALAALAKKILIK (also: fluorescein label, site not given here) [TAG 4 peptide, fluoresceinated] | < 0.0001
CEIKRAAAINLKALAALAKKIL (also: fluorescein label, site not given here) [TAG 2 peptide, fluoresceinated] | < 0.0001
